Source: patent US12510548B2, “Method of determining toxicity of an immunomodulatory drug for use in humans” (The Jackson Laboratory, priority 2017, dated 2025)
Where two headings read alike, the source gives them in different places.

Legend:
[1] = tested on: hPBMC humanized NSG mice; test: Human cytokine release in sera of hPBMC humanized NSG mice after drug injection (BD CBA Th1/Th2 II kit); conditions: mouse, in vivo
Method: PBMCs of nine […] different donors were used to produce humanized NSG mice for these experiments. On day 6 of hPBMC engraftment (2×10^7 PBMCs/mouse), the mice were induced for human cytokine release by i.v. injection with antibodies OKT3 (anti-CD3 mAb; BioLegend, Cat. No. 317302) or ANC28.1/5D10 (also referred to as “ANC28”, “anti-CD28 mAb,” or “anti-CD28”; Ancell, Cat. No. 177-824). PBS buffer served as a negative control. The mice were bled at 2 and 6 hours, sera were collected and analyzed for cytokine concentrations using BD Cytometric Bead Array (CBA) Human Th1/Th2 Cytokine kit II (BD, Cat. No. 551809) (See, FIGS. 5A-5F).
FIGS. 5A-5F depict multiple graphs of concentration of different cytokines (i.e., IFN-γ, IL-6, IL-2, IL-10, IL-4, and TNF, respectively) measured at 2 and 6 hours after injection of antibodies OKT3 (anti-CD3 mAb) and ANC28 (anti-CD28) into sets of humanized mice for nine (9) different donors. Mice were i.v. injected with 0.5 mg/kg OKT3 or 1 mg/kg anti-CD28, and 5 ml/kg PBS (a negative control). Mice were bled at 2 and 6 hours and circulating cytokine concentrations were measured by BD CBA Th1/Th2 II kit.
To do so, a high number of PBMCs (i.e., 5×10^7/mouse) was engrafted into the humanized NSG mice. On day 6, the mice received the drug and a cytokine release profile was determined. Here, the IFN-γ and Il-10 levels were evaluated as in the above-mentioned experiments using 2×10^7 PBMCs/mouse.
On day 6 after engraftment, the mice received the immunotherapeutic drug (mAb) and a cytokine release profile was determined in these three groups of mice. Mice were bled at 2 and 6 hours and circulating cytokine concentrations were measured by BD CBA Th1/Th2 II kit. FIGS. 10A-F depict the cytokine levels after drug injection in donor 309 humanized NSG mice engrafted with 2×10^7, 3×10^7, or 4×10^7PBMCs/mouse. FIG. 10A depicts the INFγ level for each group of mice. FIG. 10B depicts the IL-10 level for each group of mice. FIG. 10C depicts the IL-6 level for each group of mice. FIG. 10D depicts the IL-2 level for each group of mice. FIG. 10E depicts the IL-4 level for each group of mice. FIG. 10F depicts the TNF level for each group of mice.
In this study, the inventors examined different concentrations of […]® (pembrolizumab) to determine if there is dosage dependence in the CRS in humanized mice. 6-week old female NOD.Cg-Prkdc^scid Il2rg^tm1Wjl/SzJ (NSG, JAX stock number 005557) mice were irradiated with 100cGy X-ray at least 4 hours prior to human PBMCs engraftment. The PBMCs in these experiments were from donor 358. Purified/isolated human PBMCs were intravenously injected into the mice at 3×10^7 cells/mouse. Six days after PBMC engraftment, mice were iv injected with PBS (negative control), 0.5 mg/kg OKT3 (positive control), 2.5 mg/kg, 5 mg/kg, or 10 mg/kg […]®. There were 5 mice per group. These […]® dosages are in the range of dosages studied in clinical trials discussed on the U.S. prescribing information for […]®. Few adverse effect reports of severe cytokine release syndrome after […]® administration have been documented. Mice were bled at 2 and 6 hours and circulating cytokine concentrations were measured using a BD CBA Th1/Th2 II kit. As shown in FIGS. 12A-F, the level measured after injection of the positive control OKT3 was very high for each of IFN-γ, IL-10, IL-6, IL-2, IL-4, and TNF. […]

[2] = tested on: human PBMCs; test: In vitro PBMC assay of cytokine release (drug-coated plate); assay type: cell-based; conditions: donor 213; anti-CD28 10 μg/well, OKT3 1 mg/ml; supernatant day 2
Method: Day −1: Coated the plate with drugs: dilute drug (e.g., an antibody) in PBS; leave plate open under hood.
Day 0: Process PBMCs from each donor. PBMCs were from donor 213, 309, 345, or 366. Thaw PBMCs in supplemented RPMI and wash once. Count cells and re-suspend in supplemented RPMI at 1×10^6 cells/ml. Wash coated wells twice with 200 μl PBS and then once with 200 μL supplemented RPMI. Plate 100 μl of cells in each well (for a total of 1×10^5 cells per well).
Day 2: Harvest supernatant from each well and measure the cytokine level using a BD CBA Th1/Th2 II kit.
The two methods for determining cytokine release levels after a drug treatment were compared for treatment of PBMCs from four different donors with an anti-CD28 antibody (Ancell, Cat. No. 177-824). For the in vitro assay, anti-CD28 was dosed at 10 μg/well in the 96 well plates. For the in vivo method, anti-CD28 was dosed at 1 mg/kg. Supernatants of the in vitro PBMC culture wells and serum from the mice were collected and cytokine levels were measured. Antibody OKT3 (0.5 mg/kg for the in vivo assay or 1 mg/ml for the in vitro assay) was used as a positive control and either PBS or isotype antibodies were used as negative controls in the in vivo assay or the in vitro assay, respectively. The cytokine levels determined are presented in FIGS. 14A (IFN-γ and IL-10) and 14B (IL-6 and IL-4) as mean values±standard error of the mean (SEM).

[3] = tested on: hPBMC humanized NSG mice; conditions: mouse, in vivo
Source text: The clinical score in the mice was monitored by performing the signs and the grading of scores as follow: Score: 0=normal activity; 1=normal activity, piloerection, tiptoe gait; 2=hunched, reduced activity but still mobile; 3=hypomotile but mobile when prompted; 4=moribund (point of death). Mice with a clinical score of 4 were euthanized.
As in a reference by Brady et al., Clinical & Translational Immunology, 2014, the inventors performed the signs and the grading of scores as follow: Score: 0=normal activity; 1=normal activity, piloerection, tiptoe gait; 2=hunched, reduced activity but still mobile; 3=hypomotile but mobile when prompted; 4=moribund (point of death). Mice with a clinical score of 4 were euthanized.

[4] = tested on: non-humanized mice; test: Administration of antibodies to non-humanized mice, cytokine responses; conditions: mouse, in vivo
[5] = tested on: hPBMC humanized NSG mice; conditions: mouse, in vivo; remark: listed apart in the source
Method: Rectal temperature of the mice of Examples 5 and 6 was measured before treatment and again immediately before each time-point bleed. […] Rectal temperature was measured in hPMBCs humanized mice of 10 donors injected with control PBS, OKT3, and anti-CD28. The number of mice for each group was 2-5 and data are presented as mean±SEM.
Rectal temperature of the mice was measured before treatment and again immediately before each time-point bleed. Temperature was measured by the insertion of a rectal thermocouple probe and waiting until a stable reading was obtained.

[6] = tested on: NK cells; conditions: cited from earlier work

| Substance | cytokine levels in non-irradiated mice compared to irradiated mice [1] | major inflammatory cytokines in treated humanized mice [1] | level of each of IFN-γ, IL-10, IL-6, IL-2, IL-4, and TNF ([1]; iv, 0.5 mg/kg) | IFN-γ, IL-10, IL-6, and IL-4 levels versus control isotype antibody, in vitro [2] | clinical score [3] | cytokine responses in non-humanized mice [4] | body temperature (rectal) [5] | cytokine release in vivo [6] | cytokine levels ([1]; iv, 2.5 mg/kg) | clinical score ([3]; 5 mg/kg) | clinical score ([3]; 10 mg/kg) |
| --- | --- | --- | --- | --- | --- | --- | --- | --- | --- | --- | --- |
| muromonab-CD3 [OKT3] | consistently lower | significant increase in major inflammatory cytokines | very high | much higher than levels determined after dosing with the control isotype antibody | 1 | did not induce the cytokine responses | below 36 °C | – | – | – | – |
| alemtuzumab [CAMPATH 1-H] | – | – | – | – | – | – | – | high levels of TNF, IFN-γ and IL-6 | – | – | – |
| pembrolizumab | consistently lower | – | – | – | – | – | – | – | within the error range of the level measured for the PBS control group | the same as positive control | the same as positive control |
